Assay [1] addresses Sulfolobus islandicus rod-shaped virus 3 (SIRV3) anti-CRISPR protein AcrID1 (C-terminal His6) (Sulfolobus islandicus rod-shaped virus 3 (SIRV3)). The assay is described as follows: crystal structure; Se-Met Cas10d and AcrID1 mixed 1:2 (Cas10d:AcrID1), 75 °C for 1 min, complex isolated on Superdex 200 (30 mM Hepes-NaOH pH 7.5, 150 mM NaCl, 5 mM β-ME); crystals in 0.1 M Hepes pH 7.5, 4% PEG 8000, 5% ethylene glycol, 19 °C; SAD, 3.5 Å.

The target in assay [2] is Sulfolobus islandicus type I-D Cas10d large subunit (Se-Met substituted, C-terminal His6) (Sulfolobus islandicus). Described as above.

With “Sulfolobus islandicus rod-shaped virus 3 (SIRV3) anti-CRISPR protein AcrID1 (C-terminal His6) (natural protein)”, the stoichiometry N (in general, a count of units in the complex or per binding partner) in assay [1] turned out to be 2. In assay [2], this substance yielded a stoichiometry N (AcrID1 per Cas10d) of 2.

(Values after PMC7689449.)
